Reference: publication PMC10572585

Tested on: MBP-CPEB
Test: EMSA
Conditions: 10 mM HEPES-KOH pH 7.9, 50 mM KCl, 1 mM MgCl2, 0.1 mM ZnCl2, 0.1% NP-40, 1 mM DTT, 2 ug yeast tRNA, 2 ug BSA, 12 U RNaseOUT, 10 uL, 15 fmol RNA, room …

c-myc 3'UTR pA2 wild type (cCPE + ncCPE1 + ncCPE2)
Kd (two CPEB molecules bound (second shift)): 279 nM

c-myc pA2 cCPE only (ncCPE1 and ncCPE2 mutated)
Kd: 212 nM

c-myc pA2 ncCPE1 only (cCPE and ncCPE2 mutated)
Kd: 890 nM

c-myc pA2 ncCPE1/2 (cCPE mutated)
Kd (no second CPEB binding): 891 nM

c-myc pA2 ncCPE2 only (cCPE and ncCPE1 mutated)
Kd (low affinity, Kd lower bound): > 1000 nM
